Tests used:
[1] = target: T1, human prosaposin (PSAP) secreted from ARPE-19 cells stably transfected with human PSAP cDNA (human) (UniProt P07602); experiment: western blot of purified PGRN/PSAP complexes
T1 sequence: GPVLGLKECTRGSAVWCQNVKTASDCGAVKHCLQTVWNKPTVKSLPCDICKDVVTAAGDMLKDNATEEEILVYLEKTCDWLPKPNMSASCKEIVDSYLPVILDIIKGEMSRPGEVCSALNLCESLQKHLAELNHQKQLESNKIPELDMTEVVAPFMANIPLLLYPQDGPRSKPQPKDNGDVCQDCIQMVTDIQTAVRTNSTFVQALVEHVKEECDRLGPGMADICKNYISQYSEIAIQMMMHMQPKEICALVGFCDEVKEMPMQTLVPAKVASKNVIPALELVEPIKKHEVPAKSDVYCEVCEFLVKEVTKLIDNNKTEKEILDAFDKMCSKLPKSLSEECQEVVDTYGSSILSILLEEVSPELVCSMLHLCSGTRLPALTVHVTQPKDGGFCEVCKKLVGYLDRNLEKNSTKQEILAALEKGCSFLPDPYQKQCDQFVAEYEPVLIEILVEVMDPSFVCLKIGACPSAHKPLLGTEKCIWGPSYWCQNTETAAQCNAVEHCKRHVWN

[2] = target: T2, endogenous human progranulin (PGRN) in human plasma and CSF (human, UniProt P28799 18-593); experiment: sandwich ELISA on human plasma and CSF
T2 sequence (looked up): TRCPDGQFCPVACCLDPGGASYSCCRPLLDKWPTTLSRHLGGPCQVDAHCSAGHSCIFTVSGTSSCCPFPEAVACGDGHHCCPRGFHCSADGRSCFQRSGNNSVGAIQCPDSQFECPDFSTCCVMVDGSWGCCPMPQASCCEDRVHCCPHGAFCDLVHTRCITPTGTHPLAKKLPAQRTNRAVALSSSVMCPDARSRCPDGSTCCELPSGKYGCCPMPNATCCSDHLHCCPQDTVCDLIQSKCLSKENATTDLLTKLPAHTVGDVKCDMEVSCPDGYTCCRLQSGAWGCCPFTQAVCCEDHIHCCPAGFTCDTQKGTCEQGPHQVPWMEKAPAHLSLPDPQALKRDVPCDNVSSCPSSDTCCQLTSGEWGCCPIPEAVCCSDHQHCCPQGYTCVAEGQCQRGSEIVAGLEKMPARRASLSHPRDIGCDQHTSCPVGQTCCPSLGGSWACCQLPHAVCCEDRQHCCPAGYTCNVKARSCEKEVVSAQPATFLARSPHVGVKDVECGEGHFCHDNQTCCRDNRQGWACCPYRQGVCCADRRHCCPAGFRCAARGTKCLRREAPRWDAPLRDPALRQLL

[3] = target: T3, commercially available recombinant PGRN (R&D Systems; PGRN-His, cat no. 2420-PG) (UniProt P28799 18-593, limits assumed); experiment: mixing in vitro, western blot
T3 construct: The assay is titled 'Human PGRN/PSAP Complex Assay'; not shown: His tag
T3 sequence (looked up): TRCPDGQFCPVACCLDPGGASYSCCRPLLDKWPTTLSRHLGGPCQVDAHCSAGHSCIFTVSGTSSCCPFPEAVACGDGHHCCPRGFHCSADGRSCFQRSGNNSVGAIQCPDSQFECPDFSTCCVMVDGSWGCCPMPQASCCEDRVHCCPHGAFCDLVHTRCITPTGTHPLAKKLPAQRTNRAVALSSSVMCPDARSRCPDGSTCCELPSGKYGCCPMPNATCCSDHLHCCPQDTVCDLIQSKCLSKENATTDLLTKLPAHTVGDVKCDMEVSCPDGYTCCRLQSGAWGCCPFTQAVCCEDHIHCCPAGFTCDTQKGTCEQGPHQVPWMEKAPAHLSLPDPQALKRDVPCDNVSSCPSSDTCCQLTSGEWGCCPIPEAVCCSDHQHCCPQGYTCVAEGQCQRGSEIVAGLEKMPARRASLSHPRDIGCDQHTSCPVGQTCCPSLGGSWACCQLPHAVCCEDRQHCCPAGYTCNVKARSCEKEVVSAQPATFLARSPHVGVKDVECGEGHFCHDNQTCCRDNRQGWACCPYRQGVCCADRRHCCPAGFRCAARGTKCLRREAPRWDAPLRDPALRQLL

Molecule: human progranulin (PGRN) secreted from ARPE-19 cells stably transfected with the human progranulin gene (pT2.CAn.PGRN plasmid) (from UniProt P28799 18-593) (ligand)
- stoichiometry of PGRN and PSAP in the complex (PGRN:PSAP ratio) [1]: 1

B1: endogenous human prosaposin (PSAP), as expressed by non-PSAP-transfected ARPE-19 derived cells and as present in human plasma and CSF (ligand, UniProt P07602 17-524, looked up)
chain: GPVLGLKECTRGSAVWCQNVKTASDCGAVKHCLQTVWNKPTVKSLPCDICKDVVTAAGDMLKDNATEEEILVYLEKTCDWLPKPNMSASCKEIVDSYLPVILDIIKGEMSRPGEVCSALNLCESLQKHLAELNHQKQLESNKIPELDMTEVVAPFMANIPLLLYPQDGPRSKPQPKDNGDVCQDCIQMVTDIQTAVRTNSTFVQALVEHVKEECDRLGPGMADICKNYISQYSEIAIQMMMHMQPKEICALVGFCDEVKEMPMQTLVPAKVASKNVIPALELVEPIKKHEVPAKSDVYCEVCEFLVKEVTKLIDNNKTEKEILDAFDKMCSKLPKSLSEECQEVVDTYGSSILSILLEEVSPELVCSMLHLCSGTRLPALTVHVTQPKDGGFCEVCKKLVGYLDRNLEKNSTKQEILAALEKGCSFLPDPYQKQCDQFVAEYEPVLIEILVEVMDPSFVCLKIGACPSAHKPLLGTEKCIWGPSYWCQNTETAAQCNAVEHCKRHVWN
- binding result [2]: binds

B2: human prosaposin (PSAP) secreted from ARPE-19 cells stably transfected with human PSAP cDNA (ligand)
chain: GPVLGLKECTRGSAVWCQNVKTASDCGAVKHCLQTVWNKPTVKSLPCDICKDVVTAAGDMLKDNATEEEILVYLEKTCDWLPKPNMSASCKEIVDSYLPVILDIIKGEMSRPGEVCSALNLCESLQKHLAELNHQKQLESNKIPELDMTEVVAPFMANIPLLLYPQDGPRSKPQPKDNGDVCQDCIQMVTDIQTAVRTNSTFVQALVEHVKEECDRLGPGMADICKNYISQYSEIAIQMMMHMQPKEICALVGFCDEVKEMPMQTLVPAKVASKNVIPALELVEPIKKHEVPAKSDVYCEVCEFLVKEVTKLIDNNKTEKEILDAFDKMCSKLPKSLSEECQEVVDTYGSSILSILLEEVSPELVCSMLHLCSGTRLPALTVHVTQPKDGGFCEVCKKLVGYLDRNLEKNSTKQEILAALEKGCSFLPDPYQKQCDQFVAEYEPVLIEILVEVMDPSFVCLKIGACPSAHKPLLGTEKCIWGPSYWCQNTETAAQCNAVEHCKRHVWN
notes: The protein was secreted into conditioned medium; no signal peptide limits are stated; also called ARPE-PSAP; PSAP (#7)
- binding result [3]: binds

— US20230257436A1 (published 2023)
